This note sets out measurements from PMC12549896, “Structural basis for antibiotic resistance by chloramphenicol acetyltransferase type A in Staphylococcus aureus” (Scientific Reports, 2025).

Data set [1] deals with T1, saCAT1 (chloramphenicol acetyltransferase type A, S. aureus) (Staphylococcus aureus, UniProt P00485).
T1 construct: gene cat; residues 1-216; four amino acids (GSLE) remain at the N-terminus after thrombin cleavage; homotrimer
Kind of data set: DTNB colorimetric acetyltransferase assay at […] nm, FA […], at […] chloramphenicol. Format: biochemical.

For data set [2], the system named is O=C(N[C@H](CO)[C@H](O)c1ccc([N+](=O)[O-])cc1)C(Cl)Cl. Briefly: purified protein. Format: biochemical, Staphylococcus aureus. The settings on record: acetyl-CoA ([…] in assay) docked only: inter-protomer pocket; Ser140, Ser142, Tyr20, Thr25, catalytic His189.
Data set [3] concerns the molecule itself. Briefly: crystal structure; X-ray, space group P321, 1.8 Å; hanging drop at 16 °C, 0.01 M cobalt (II) chloride, 0.1 M sodium acetate pH 4.6, 1 M 1,6-hexanediol; trimer on the crystallographic 3-fold axis, interfaces analysed with PISA.

As a reminder, the Ki is a measure of affinity in units of concentration, obtained from inhibition or displacement. The low end stands for tighter binding, the high end for weaker binding. `CC(=O)O[C@H]1C[C@@]2(C)[C@@H](C[C@@H](O)[C@H]3[C@@]4(C)CC[C@@H](O)[C@@H](C)[C@@H]4CC[C@@]32C)/C1=C(\CCC=C(C)C)C(=O)O` [FA, fusidic acid] showed an inhibition constant Ki in data set [1] of 83.7 µM.

The term Km denotes the substrate concentration at which the rate is half of its maximum. For the molecule “saCAT1 (chloramphenicol acetyltransferase type A, S. aureus) (Staphylococcus aureus)”, the Michaelis-Menten constant (Km) in data set [2] is 16.9 ± 3.0 µM.

B1: Staphylococcus aureus chloramphenicol acetyltransferase 1 (saCAT1) (enzyme)
chain: GSLEMNFNKIDLDNWKRKEIFNHYLNQQTTFSITTEIDISVLYRNIKQEGYKFYPAFIFLVTRVINSNTAFRTGYNSDGELGYWDKLEPLYTIFDGVSKTFSGIWTPVKNDFKEFYDLYLSDVEKYNGSGKLFPKTPIPENAFSLSIIPWTSFTGFNLNINNNSNYLLPIITAGKFINKGNSIYLPLSLQVHHSVCDGYHAGLFMNSIQELSDRPNDWLL
notes: four amino acids that remain at the N-terminus after thrombin cleavage of the His tag; chloramphenicol acetyltransferase encoded by the cat1 gene of Staphylococcus aureus plasmid pC194; all residues (1-216) modelled in the crystal structure; Cloned into the vector pFs91G (N-terminal 6xHis tag and thrombin site); Homotrimer in solution and in the crystal; one protomer in the asymmetric unit, the …
By stoichiometry N is commonly meant a count of units in the complex or per binding partner. B1: in data set [3], the “stoichiometry N” value worked out at 3.
